Literature values in PMC9585055.

Target: cellular prion protein PrPC (Homo sapiens) (UniProt P04156)

tissue-type plasminogen activator (from UniProt P00750)
Kd: 2.5 nM
